Experimental data taken from doi:10.1101/2023.12.15.571945.

Biological target: GFP-Rab13-2 (N. benthamiana)
Assay: co-IP

level of binding (α-FLAG/α-GFP) with RFP-Pc12 expressed: 1.3
Substance: REP-3xFLAG (Rab escort protein 1) (natural protein)
